This assay has as its target acetylcholine receptor (Homo sapiens, UniProt P02708). In words: SPR binding affinity (RU) of optimized 5mer/6mer/7mer peptides, Examples 6-7. The settings on record: 6mer-2 Top sequence; SPR; peptides tested at 10 μM. The method, boiled down: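 Response units from SPR give the binding values listed. Each synthesized peptide was run at 10 μM over the receptor.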

Sequence of acetylcholine receptor (P02708 21-457): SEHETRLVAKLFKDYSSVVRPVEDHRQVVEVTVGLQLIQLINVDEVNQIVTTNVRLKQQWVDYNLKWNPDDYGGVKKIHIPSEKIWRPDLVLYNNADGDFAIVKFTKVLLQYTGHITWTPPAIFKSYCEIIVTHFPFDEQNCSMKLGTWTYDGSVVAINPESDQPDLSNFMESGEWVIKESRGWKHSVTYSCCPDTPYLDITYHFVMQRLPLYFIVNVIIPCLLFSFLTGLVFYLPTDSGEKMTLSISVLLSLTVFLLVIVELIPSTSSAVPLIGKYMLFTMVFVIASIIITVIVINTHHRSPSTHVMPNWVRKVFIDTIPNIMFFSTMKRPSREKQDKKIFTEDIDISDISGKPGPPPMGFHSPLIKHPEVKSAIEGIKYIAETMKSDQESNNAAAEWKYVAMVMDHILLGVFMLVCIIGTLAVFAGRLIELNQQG

Take 6mer-2-16 (KGVCRR): the Binding affinity was 121 Ru.

In the case of 6mer-2-17 (RWVTRR), the Binding affinity is recorded as 142 Ru.

With 6mer-2-18 (RSILRR), the Binding affinity worked out at 124 Ru.

Turning to 6mer-2-19 (RSFSKK), the Binding affinity stood at 135 Ru.

Consider 6mer-2-20 (RVQTRR), for which the Binding affinity came to 137 Ru.

As for 6mer-2-21 (RLFTRK), the Binding affinity was determined as 141 Ru.

In the case of 6mer-2-22 (RQIRKK), the Binding affinity is 124 Ru.

For the substance 6mer-2-23 (RWVRKK), the Binding affinity was determined as 148 Ru.

As to 6mer-2-24 (KGIQRK), the Binding affinity amounted to 141 Ru.

Consider 6mer-2-25 (KQVQKR), for which the Binding affinity amounted to 148 Ru.

Take 6mer-2-26 (RWRRKK): the Binding affinity is 121 Ru.

On to 6mer-2-27 (KVIRRK), for which the Binding affinity is on record as 128 Ru.

With 6mer-2-28 (KVLSRK), the Binding affinity is reported as 142 Ru.

In the case of 6mer-2-29 (RSQRKR), the Binding affinity amounted to 142 Ru.

For the substance 6mer-2-30 (RQFYKK), the Binding affinity is given as 139 Ru.

As to 6mer-2-31 (KSYQRK), the Binding affinity was 121 Ru.

For the substance 6mer-2-32 (RRLCRK), the Binding affinity is 139 Ru.

Consider 6mer-2-33 (RQFRKK), for which the Binding affinity is 142 Ru.

As to 6mer-2-34 (KVFRRK), the Binding affinity turned out to be 124 Ru.

For 6mer-2-35 (RWISRK), the Binding affinity is 148 Ru.

6mer-2-36 (RRLQKK): the Binding affinity was 131 Ru.

In the case of 6mer-2-37 (KLLYRK), the Binding affinity worked out at 148 Ru.

Regarding 6mer-2-38 (RSYYKR), the Binding affinity is recorded as 136 Ru.

For 6mer-2-39 (RWRYRK), the Binding affinity was found to be 137 Ru.

For the substance 6mer-2-40 (RRYRKK), the Binding affinity is given as 153 Ru.

6mer-2-41 (KQLCKR): the Binding affinity was 142 Ru.

6mer-2-42 (KLLSKR): the Binding affinity is 126 Ru.

With 6mer-2-43 (RVITKR), the Binding affinity came to 146 Ru.

In the case of 6mer-2-44 (KSVRRK), the Binding affinity is 145 Ru.

Turning to 6mer-2-45 (RSLTKK), the Binding affinity was determined as 121 Ru.

Turning to 6mer-2-46 (KLYLKR), the Binding affinity stood at 153 Ru.

For 6mer-2-47 (KLQSRR), the Binding affinity came to 148 Ru.

As to 6mer-2-48 (RRFRKK), the Binding affinity came to 153 Ru.

On to 6mer-2-49 (RLRCRK), for which the Binding affinity is 154 Ru.

For the substance 6mer-2-50 (RSQSKR), the Binding affinity came to 125 Ru.

With 6mer-2-51 (KQFLKK), the Binding affinity is recorded as 139 Ru.

Consider 6mer-2-52 (KRQRKK), for which the Binding affinity is listed as 136 Ru.

Regarding 6mer-2-53 (KSLSRR), the Binding affinity came out at 125 Ru.

Turning to 6mer-2-54 (KGRRRR), the Binding affinity came out at 124 Ru.

On to 6mer-2-55 (RLFYKK), for which the Binding affinity is 125 Ru.

With 6mer-2-56 (RSQLRR), the Binding affinity worked out at 149 Ru.

In the case of 6mer-2-57 (KQRCRR), the Binding affinity stood at 139 Ru.

Take 6mer-2-58 (KRLQRK): the Binding affinity was determined as 122 Ru.

Turning to 6mer-2-59 (RVLSRK), the Binding affinity was determined as 123 Ru.

As for 6mer-2-60 (RRLSKK), the Binding affinity was found to be 148 Ru.

As to 6mer-2-61 (RGFQRK), the Binding affinity was found to be 148 Ru.

For 6mer-2-62 (RLVTKR), the Binding affinity amounted to 147 Ru.

Regarding 6mer-2-63 (KSFRKR), the Binding affinity is given as 121 Ru.

Take 6mer-2-64 (KSVSKK): the Binding affinity worked out at 136 Ru.

Consider 6mer-2-65 (KGVCKR), for which the Binding affinity came out at 148 Ru.

6mer-2-66 (RVIRRR): the Binding affinity came to 123 Ru.

Turning to 6mer-2-67 (KLFCKK), the Binding affinity amounted to 124 Ru.

Regarding 6mer-2-68 (KGRRRK), the Binding affinity is 142 Ru.

With 6mer-2-69 (KWFLRK), the Binding affinity is recorded as 139 Ru.

In the case of 6mer-2-70 (KRLLRK), the Binding affinity amounted to 126 Ru.

Take 6mer-2-71 (KQVYKR): the Binding affinity turned out to be 141 Ru.

For 6mer-2-72 (KRIQKK), the Binding affinity came to 144 Ru.

For 6mer-2-73 (RLYTKR), the Binding affinity is 139 Ru.

In the case of 6mer-2-74 (RWIYKR), the Binding affinity was 136 Ru.

Regarding 6mer-2-75 (KLYTRK), the Binding affinity turned out to be 133 Ru.

Turning to 6mer-2-76 (RRQSRK), the Binding affinity was 142 Ru.

Consider 6mer-2-77 (KQQTRR), for which the Binding affinity was found to be 123 Ru.

As for 6mer-2-78 (KRYLKR), the Binding affinity was determined as 135 Ru.

Consider 6mer-2-79 (RQLSKR), for which the Binding affinity is 135 Ru.

As to 6mer-2-80 (RRQYKR), the Binding affinity is on record as 148 Ru.

6mer-2-81 (RRVSRR): the Binding affinity was 121 Ru.

Regarding 6mer-2-82 (RGVQKK), the Binding affinity was 124 Ru.

Regarding 6mer-2-83 (KQYQRR), the Binding affinity turned out to be 135 Ru.

Turning to 6mer-2-84 (KQRYKK), the Binding affinity is 139 Ru.

Consider 6mer-2-85 (KSQYKR), for which the Binding affinity is reported as 137 Ru.

Regarding 6mer-2-86 (KQFRRK), the Binding affinity is given as 126 Ru.

In the case of 6mer-2-87 (RRLTKR), the Binding affinity was 142 Ru.

Take 6mer-2-88 (KSFQRR): the Binding affinity stood at 141 Ru.

Consider 6mer-2-89 (KSRSKK), for which the Binding affinity was found to be 141 Ru.

As for 6mer-2-90 (KGRTKR), the Binding affinity is reported as 133 Ru.

Regarding 6mer-2-91 (KWIYKR), the Binding affinity is listed as 121 Ru.

Turning to 6mer-2-92 (KVVCKR), the Binding affinity was 131 Ru.

For 6mer-2-93 (RWQTRR), the Binding affinity is 133 Ru.

Turning to 6mer-2-94 (RLYQRK), the Binding affinity came to 126 Ru.

For 6mer-2-95 (RRIYRK), the Binding affinity came out at 142 Ru.

Regarding 6mer-2-96 (KWRQRK), the Binding affinity is on record as 154 Ru.

In the case of 6mer-2-97 (RQFYRK), the Binding affinity came to 154 Ru.

6mer-2-98 (RRQQRR): the Binding affinity was 148 Ru.

For 6mer-2-99 (RQRSRR), the Binding affinity is 151 Ru.

On to 6mer-2-100 (RRRCRR), for which the Binding affinity is reported as 142 Ru.

For 6mer-2-101 (RLICRK), the Binding affinity is on record as 154 Ru.

6mer-2-102 (KVYQKK): the Binding affinity is listed as 139 Ru.

As for 6mer-2-103 (RVVTKK), the Binding affinity is on record as 136 Ru.

Turning to 6mer-2-104 (RGVCRK), the Binding affinity is on record as 145 Ru.

On to 6mer-2-105 (RGFTRR), for which the Binding affinity was determined as 151 Ru.

With 6mer-2-106 (RWVQRK), the Binding affinity worked out at 123 Ru.

6mer-2-107 (RGVYRK): the Binding affinity stood at 144 Ru.

For the substance 6mer-2-108 (RVVYKK), the Binding affinity is 153 Ru.

As to 6mer-2-109 (RRVYRK), the Binding affinity is on record as 144 Ru.

With 6mer-2-110 (KSQLKK), the Binding affinity stood at 153 Ru.

As for 6mer-2-111 (KLIRRK), the Binding affinity is 123 Ru.

On to 6mer-2-112 (RLQQKR), for which the Binding affinity is 142 Ru.

For 6mer-2-113 (KRYSRK), the Binding affinity is 145 Ru.
